Experiments:
[1] = target: cynomolgus monkey PCSK9 (cynomolgus monkey); assay: BIAcore, antibody immobilised, pH 7.4
[2] = target: cynomolgus monkey PCSK9 (cynomolgus monkey); assay: KinExA solution equilibrium
[3] = target: cynomolgus monkey PCSK9 (cynomolgus monkey); assay: BIAcore solution equilibrium, column To Cyno PCSK9
[4] = target: human PCSK9 (proprotein convertase subtilisin kexin type 9) (human) (UniProt Q8NBP7); assay: BIAcore solution equilibrium, pH 6.0
[5] = target: human PCSK9 (proprotein convertase subtilisin kexin type 9) (human) (UniProt Q8NBP7); assay: BIAcore solution equilibrium, pH 5.5
[6] = target: human PCSK9 (proprotein convertase subtilisin kexin type 9) (human) (UniProt Q8NBP7); assay: BIAcore solution equilibrium, pH 7.4
31H4, anti-PCSK9 huIgG4 = assay: KinExA solution equilibrium, % free 31H4.1 against [cPCSK9]; curve with diamonds; 10 pM or 100 pM 31H4 series not labelled
Sequence of 31H4, anti-PCSK9 huIgG4 (heavy, as listed by the source, chain 1 of 2): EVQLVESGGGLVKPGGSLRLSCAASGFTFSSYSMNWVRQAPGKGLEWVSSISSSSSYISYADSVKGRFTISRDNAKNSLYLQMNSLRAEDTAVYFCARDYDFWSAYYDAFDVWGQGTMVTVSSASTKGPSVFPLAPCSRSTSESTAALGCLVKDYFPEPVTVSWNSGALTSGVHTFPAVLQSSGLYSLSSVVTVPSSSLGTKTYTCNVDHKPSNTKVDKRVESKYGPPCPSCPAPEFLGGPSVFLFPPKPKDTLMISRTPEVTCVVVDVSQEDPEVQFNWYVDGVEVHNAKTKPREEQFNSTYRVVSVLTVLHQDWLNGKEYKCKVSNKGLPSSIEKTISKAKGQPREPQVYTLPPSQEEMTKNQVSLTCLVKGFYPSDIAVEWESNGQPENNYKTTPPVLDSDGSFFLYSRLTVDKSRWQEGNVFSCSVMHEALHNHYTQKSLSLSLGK
Sequence of 31H4, anti-PCSK9 huIgG4 (light, as listed by the source, chain 2 of 2): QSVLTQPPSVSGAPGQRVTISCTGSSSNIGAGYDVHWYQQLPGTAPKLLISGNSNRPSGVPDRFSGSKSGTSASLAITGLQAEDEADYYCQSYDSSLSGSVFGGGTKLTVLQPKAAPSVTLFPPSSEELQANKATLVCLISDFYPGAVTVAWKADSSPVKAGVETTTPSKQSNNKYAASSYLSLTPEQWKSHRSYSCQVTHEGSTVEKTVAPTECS

Question: For 31H4, anti-PCSK9 huIgG4 (antibody), which Kd [1] is on record?
Answer: 190 pM

Question: What about the Kd [2] of the same substance?
Answer: 2 pM

Question: With AMG145 (antibody) as the substance, how does the Kd [3] read?
Answer: 8 pM

Question: And the Kd [4]?
Answer: 6 pM

Question: And the Kd [5]?
Answer: 28 pM

Question: And the Kd [6]?
Answer: 19 pM

Question: How did the IC50 (read off the curve) (31H4, anti-PCSK9 huIgG4) turn out when “cynomolgus monkey PCSK9 (from UniProt A0A7N9D9N8 150-747) (enzyme)” was run?
Answer: 10 pM

— patent US20130072665A1
